Assay results taken from patent US20230270832A1, “MAGEA1 IMMUNOGENIC PEPTIDES, BINDING PROTEINS RECOGNIZING MAGEA1 IMMUNOGENIC PEPTIDES, AND USES THEREOF” (TScan Therapeutics, Inc., priority 2021, published 2023).

Experiments:
[1] = biological target: T1, epitope from MAGEA1 presented by HLA C*07:02 (Homo sapiens, UniProt P10321+P43355, DEL298-309); assay: Identification of MAGEA1-reactive TCRs from pool of TCR-transduced T cells (CD137/CD69 sorting, TCR sequencing); format: cell-based; settings: target cells transduced with MAGEA1 90-mer
T1 construct: an individual 90-amino acid fragments representing the top-scoring MAGEA1 tile from the screen; expressed in transfected cells; host or cells: MHC monoallelic C*07:02 HEK293T cells, lentivirally transduced with the MAGEA1 90-mer
Source text: Ten orphan TCRs from this patient were pooled together to identify their cognate antigens using the genome-wide TargetScan technology. This screen identified MAGEA1 as a novel target. […] Note that the term “TCR32-39” may also be known as “TCR39” and the term “TCR32-41” may also be known as “TCR41”.
To identify the corresponding TCR from the pool of TCR-transduced T cells, Ml-IC monoallelic C*07:02 HEK293T cells engineered to express the MAGEA1 90mer were co-cultured with the pool of T cells at an E:T ratio of 1:1 for 16-24 hours. The T cells were mixed, collected by pipetting, and labeled with a CD137 microbead kit (Miltenyi) following the manufacturer's instructions. In brief, T cells were first stained with PE-labeled anti-CD137 and AF647-labeled anti-CD69 (BioLegend), washed, and then labeled with anti-PE microbeads. Labeled cells were enriched with an autoMACS® Pro separator (Miltenyi) and CD137 and CD69 double-positive cells were sorted on a MoFlo® Astrios™ Cell Sorter (Beckman Coulter). Genomic DNA was extracted from the sorted cells and the TCR expression cassette was PCR amplified and prepared for next generation sequencing (NGS).

[2] = system: cancer cells that express MAGEA1; assay: T cell recognition assay on cancer cell lines; format: cell-based, human; settings: IFNγ release, CD137/CD69 double-positive staining
Protocol: To detect reactivity to cancer cell lines, wild-type cancer cell lines were seeded in a 96-well flat bottom plate and rested overnight at 37° C. in 5% CO2. On the following day, T cells were thawed, washed in complete RPMI-1640 medium, and added to the wells for an effector to target (E:T) ratio of 1:1 for INFγ measurement or 1:4 for flow cytometry analysis of activation-induced markers. The co-culture was incubated overnight. Cells were then harvested by pipetting, transferred to V-bottom 96-well plates, and centrifuged at 2,000 rpm for 2 minutes. The supernatant was collected for IFNγ measurement using a human IFNγ 3rd generation single-plex assay (Protein Simple). For flow cytometry analysis (Cytoflex S™ instrument, Beckman Coulter), cell pellets were washed with FACS buffer (PBS, 0.5% BSA, 2 mM EDTA) and stained for activation-induced markers, including PE-conjugated anti-CD137 (Miltenyi), AF647-conjugated anti-CD69 (Biolegend), and BV421-conjugated anti-CD8 (BioLegend).
Cancer cell lines were purchased from ATCC (Manassas, Vα.) and HEK293T cells were originally from Takara Bio (Shiga, Japan). All media were supplemented with […], except U266B1 which required 15% FBS, and 1% penicillin and incubated at 37° C. in 5% CO2. A101D (high MAGE-A1 expresing cells; TPM: 359), A2058 (medium MAGE-A1 expresing cells; TPM: 128), HS294T, and HEK293T cells were maintained in complete DMEM. SK-MEL-5 was cultured in complete EMEM, whereas U266B1, NCIH1437 and 786-0 required complete RPMI. Untransduced cancer cells were maintained in preparation for the T cell recognition assay, and 10^6 cells of each cell line were introduced with Incucyte® NucLight™ Red lentivirus reagent (Sartorius, Gottingen, Germany) Positively-labeled cells were selected using 1.5 ug/mL of puromycin over 72 hours.

recognition of MAGEA1 epitope / identification as MAGEA1-reactive TCR ([1]; listed as TCR 39): hits
B1: TCR 32-39: T cell receptor recognizing MAGEA1 epitope presented by HLA-C*07:02; alpha TRAV29-DV5/TRAJ43, beta TRBV18/TRBJ2-7; wild type, HM and MGTM sequences listed (protein)
TCR alpha: DQQVKQNSPSLSVQEGRISILNCDYTNSMFDYFLWYKKYPAEGPTFLISISSIKDKNEDGRFTVFLNKSAKHLSLHIVPSQPGDSAVYFCAASAQNNDMRFGAGTRLTVKPNIQNPEPAVYQLKDPRSQDSTLCLFTDFDSQINVPKTMESGTFITDKCVLDMKAMDSKSNGAIAWSNQTSFTCQDIFKETNATYPSSDVPCDATLTEKSFETDMNLNFQNLLVMVLRILLLKVAGFNLLMTLRLWSS
TCR beta: NAGVMQNPRHLVRRRGQEARLRCSPMKGHSHVYWYRQLPEEGLKFMVYLQKENIIDESGMPKERFSAEFPKEGPSILRIQQVVRGDSAAYFCASSPSYEQYFGPGTRLTVTEDLRNVTPPKVSLFEPSKAEIANKQKATLVCLARGFFPDHVELSWWVNGKEVHSGVCTDPQAYKESNYSYCLSSRLRVSATFWHNPRNHFRCQVQFHGLSEEDKWPEGSPKPVTQNISAEAWGRADCGITSASYQQGVLSATILYEILLGKATLYAVLVSTLVVMAMVKRKNS
recognition of MAGEA1 epitope / identification as MAGEA1-reactive TCR ([1]; listed as HN-32-39): recognizing the same novel epitope from MAGEA1 presented by HLA C*07:02
recognition of cancer cells [2]: recognize cancer cells that express MAGEA1
recognition of cancer cells ([2]; listed as TCR 39): recognize
